# From patent US12723243B2, “Archaeal pyrrolysyl tRNA synthetases for orthogonal use” (European Molecular Biology Laboratory, priority 2016, dated 2026)
# B1: PylRS^AF: mutant M. mazei pyrrolysyl tRNA synthetase comprising amino acid substitutions Y306A and Y384F, SEQ ID NO:2 (protein)
# chain: MDKKPLNTLISATGLWMSRTGTIHKIKHHEVSRSKIYIEMACGDHLVVNNSRSSRTARALRHHKYRKTCKRCRVSDEDLNKFLTKANEDQTSVKVKVVSAPTRTKKAMPKSVARAPKPLENTEAAQAQPSGSKFSPAIPVSTQESVSVPASVSTSISSISTGATASALVKGNTNPITSMSAPVQASAPALTKSQTDRLEVLLNPKDEISLNSGKPFRELESELLSRRKKDLQQIYAEERENYLGKLEREITRFFVDRGFLEIKSPILIPLEYIERMGIDNDTELSKQIFRVDKNFCLRPMLAPNLANYLRKLDRALPDPIKIFEIGPCYRKESDGKEHLEEFTMLNFCQMGSGCTRENLESIITDFLNHLGIDFKIVGDSCMVFGDTLDVMHGDLELSSAVVGPIPLDREWGIDKPWIGAGFGLERLLKVKHDFKNIKRAARSESYYNGISTNL
# modifications: Methanosarcina mazei PylRS Y306A, Y384F mutant; MUTAGEN 306 Y306A mutation; MUTAGEN 384 Y384F mutation
# System: mCherry-GFP^Y39TAG amber suppression reporter
# Assay: Amber suppression in baculovirus-transduced Sf21 insect cells, flow cytometry
# Format: cell-based, Spodoptera frugiperda
# Experimental: Following standard protocols, insect cells of line Sf21 were cultured in a protein-free, serum-free standard culture medium for Spodoptera frugiperda cells (Sf-900™ III SFM) at 27° C. shaking at 180 rpm. The Sf21 cells were split every day to a density of 0.6×10^6 cells/ml or every third day to a density of 0.3×10^6 cells/ml.
# Baculovirus shuttle vector (Bacmid) DNA containing an expression cassette encoding tRNA^Pyl, mCherry-GFP^Y39TAG and either PylRS^AF or NES-PylRS^AF was prepared using standard cloning and recombination procedures.
# For transfection 3 ml/well of 0.3×10^6 Sf21 cells/ml were seeded in a 6-well cell culture multidish (Nunclon Delta Surface, Thermo scientific) and transfected with Bacmid DNA using a nonliposomal transfection reagent (FuGENE®HD Transfection Reagent, Promega) following the manufacturer's instructions. V0-virus was harvested 70 h post transfection and the V1-generation was started. Therefor, 25 ml Sf21 cells at 0.6×10^6 cells/ml were transfected with 3 ml of the Vo-virus. After cell proliferation stopped, the cultures were kept for another 48-60 h at 27° C. shaking at 180 rpm. The transfected cells were harvested by centrifugation (500 rpm, 10 min) and the supernatant (i.e., the V1-Virus) was stored at 4° C.
# 5-25 ml Sf21 cells at 0.6×10^6 cells/ml were transduced with V1-virus prepared by method (I) at a ratio of 100:1 vol/vol (cells:virus). One day afterwards, different amounts of UAA 1 (0-1 mM final concentration) was added to the cultures. After three days of culture, the cells were harvested by centrifugation (500 rpm, 10 min), cooled down to 4° C., resuspended in 2 ml sterile 1×PBS, filtered through a cell strainer (Falcon, 70 μm, Fisher Scientific) and kept on ice until analysis. Data for 500,000 cells of each sample was acquired and analyzed using a LSRFortessa SORP Cell Analyzer (Becton, Dickinson and Company) and the FlowJo software (FlowJo Enterprise). Cells were gated first by cell type (using FSC-A×SSC-A parameters) and then by single cell (FSC-A×SSC-W). GFP fluorescence was acquired in the 488-530/30 channel and mCherry fluorescence in the 561-610/20 channel.
# Sf21 cells were transduced with Bacmid DNA encoding tRNA^Pyl, mCherry-GFP^Y39TAG, and either PylRS^AF or NES-PylRS^AF, cultured with different concentrations (0, 10, 50, 100, 250, 500 or 1000 μM) of UAA 1 (BOC) and analyzed using methods (I) and (J) described herein.
# mCherry fluorescence of the cells indicated successful transduction with Bacmid DNA. GFP fluorescence of the cells indicated successful suppression of the amber stop codon encoding amino acid position 39 of the GFP^Y39TAG reporter gene by incorporation of UAA 1 at said position.
molecule,measurement,setting,value
B1,Cells showing both mCherry and GFP fluorescence,"Sf21, UAA 1 conc. 0 μM",1.4%
same,Cells showing only mCherry fluorescence,"Sf21, UAA 1 conc. 0 μM",94.6%
same,Cells showing both mCherry and GFP fluorescence,"Sf21, UAA 1 conc. 10 μM",20.1%
same,Cells showing only mCherry fluorescence,"Sf21, UAA 1 conc. 10 μM",75.8%
same,Cells showing both mCherry and GFP fluorescence,"Sf21, UAA 1 conc. 50 μM",56.2%
same,Cells showing only mCherry fluorescence,"Sf21, UAA 1 conc. 50 μM",39.3%
same,Cells showing both mCherry and GFP fluorescence,"Sf21, UAA 1 conc. 100 μM",67.1%
same,Cells showing only mCherry fluorescence,"Sf21, UAA 1 conc. 100 μM",25.9%
same,Cells showing both mCherry and GFP fluorescence,"Sf21, UAA 1 conc. 250 μM",76.5%
same,Cells showing only mCherry fluorescence,"Sf21, UAA 1 conc. 250 μM",13.9%
same,Cells showing both mCherry and GFP fluorescence,"Sf21, UAA 1 conc. 500 μM",81.6%
same,Cells showing only mCherry fluorescence,"Sf21, UAA 1 conc. 500 μM",9.1%
same,Cells showing both mCherry and GFP fluorescence,"Sf21, UAA 1 conc. 1000 μM",85.8%
same,Cells showing only mCherry fluorescence,"Sf21, UAA 1 conc. 1000 μM",5.7%
